B1: SLC2A12 (parent)
chain: LTLVFFVQITGQPNILFYASTVLK
B2: CAMK2B (parent)
chain: YQQIKAGAYDFPSPEWDTVTPEAK

94 variants from the supplement of paper PMC10567573 can be followed below.
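Also: lentivirally expressed fusions sorted by FACS into six bins by GFP to DsRed ratio, PSI derived from sequencing read proportions per bin multiplied by bin number.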

In one data set the parent is B1. The data set is described as follows: protein stability index of a GFP-peptide fusion (GPS, HEK-293T) (PSI 1-6); higher = more stable. To be noted: c terminus: a fixed tail appended.
As for LTLVFFVQITGQPNILFYACTVLK [S20C], the protein stability index came to 2.27.
Still for that read-out and setting: next, LTLVFFVQITGQPNILFYAWTVLK [S20W]: 4.76; LTLVFFVQITGQPNILFYAYTVLK [S20Y]: 3.22; LTLVFFSQITGQPNILFYASTVLK [V7S]: 2.3.
Still for that read-out and setting: under LTLVFFVQITGQPNILFYASTVQK [L23Q] stands 3.05.
Same read-out and setting: next, LTLVFFVQITGQPNILFYASEVLK [T21E]: 2.46.
For the variant ITLVFFVQITGQPNILFYASTVLK [L1I], the protein stability index came out at 2.33.
For LTLVFFVQITGQPSILFYASTVLK [N14S], the protein stability index turned out to be 2.14.
Same read-out and setting: next, LTLVFFVQITGQPCILFYASTVLK [N14C]: 1.99; LTLVFFVQITGQPNALFYASTVLK [I15A]: 2.99.
Turning to LTLVFFVQITYQPNILFYASTVLK [G11Y], the protein stability index was found to be 3.04.
The same measure, in the same setting: under LTEVFFVQITGQPNILFYASTVLK [L3E] stands 4.85.
Still for that read-out and setting: next, LTDVFFVQITGQPNILFYASTVLK [L3D]: 2.9; LTLVFFVHITGQPNILFYASTVLK [Q8H]: 3.26; LTLVFFVQITGQPNIDFYASTVLK [L16D]: 2.58.
Same read-out and setting: next, LTLVFFVQITGQPNITFYASTVLK [L16T]: 3.51; LTLVYFVQITGQPNILFYASTVLK [F5Y]: 2.52; LTLVFFVQITGQPNILFYTSTVLK [A19T]: 2.42.
As for LTLVFFVQITGQPNILFYVSTVLK [A19V], the protein stability index stood at 2.66.
For LTLVFDVQITGQPNILFYASTVLK [F6D], the protein stability index was 2.69.
Same read-out and setting: next, LTLCFFVQITGQPNILFYASTVLK [V4C]: 3.38.

In another data set the parent is B2. Described as above. Conditions: c terminus: a fixed tail appended.
On to YQWIKAGAYDFPSPEWDTVTPEAK [Q3W], for which the protein stability index was found to be 2.09.
Still for that read-out and setting: under YQMIKAGAYDFPSPEWDTVTPEAK [Q3M] stands 2.88; under YQEIKAGAYDFPSPEWDTVTPEAK [Q3E], 4.59; under YQQIKAGAYDFPDPEWDTVTPEAK [S13D], 4.08.
Same read-out and setting: next, YQQIKAGAYDFPEPEWDTVTPEAK [S13E]: 4.12; YQQIKAGAYDFPWPEWDTVTPEAK [S13W]: 2.8.
On the same count and under the same terms, under YQQIKAGAYDFPVPEWDTVTPEAK [S13V] stands 3.18.
For the variant YQQIKAGAYDFPTPEWDTVTPEAK [S13T], the protein stability index was 3.69.
Regarding YQQIKAGAYDFPLPEWDTVTPEAK [S13L], the protein stability index came out at 3.29.
Same read-out and setting: next, YQQIKAGAYDFPFPEWDTVTPEAK [S13F]: 2.79; YQQIKAGAYDFPQPEWDTVTPEAK [S13Q]: 2.9.
Same read-out and setting: under YQQIKAGAYDFPAPEWDTVTPEAK [S13A] stands 3.24; under YQQIKAGAYDFPSPQWDTVTPEAK [E15Q], 3.44.
Same read-out and setting: next, YQQIKAGAYDFPSPYWDTVTPEAK [E15Y]: 1.99; YQQIKAGAYDFPSPIWDTVTPEAK [E15I]: 2.53; YQQIKAGAYDFPSPMWDTVTPEAK [E15M]: 2.77.
For the variant YQQIKAGAYDFPSPNWDTVTPEAK [E15N], the protein stability index came out at 3.41.
On the same count and under the same terms, next, YQQIKAGAYDFPSPSWDTVTPEAK [E15S]: 3.39; YQQIKAGAYDFPSPDWDTVTPEAK [E15D]: 3.86.
Still for that read-out and setting: under YQQIKAGAYDFPSPHWDTVTPEAK [E15H] stands 2.91.
On the same count and under the same terms, next, YQQIKAGAYDFPSPTWDTVTPEAK [E15T]: 2.67.
Turning to YQQIKAGAYDFPSPCWDTVTPEAK [E15C], the protein stability index came out at 2.42.
Consider YQQIKAGAYDFPSPFWDTVTPEAK [E15F], for which the protein stability index is 2.14.
The same measure, in the same setting: under WQQIKAGAYDFPSPEWDTVTPEAK [Y1W] stands 4.15; under EQQIKAGAYDFPSPEWDTVTPEAK [Y1E], 5.13; under MQQIKAGAYDFPSPEWDTVTPEAK [Y1M], 5.04.
Turning to VQQIKAGAYDFPSPEWDTVTPEAK [Y1V], the protein stability index was determined as 4.69.
Consider IQQIKAGAYDFPSPEWDTVTPEAK [Y1I], for which the protein stability index turned out to be 3.89.
YQQIKAGAYDFPSPEWDTVTPEMK [A23M]: the protein stability index was 3.28.
With YQQIKAGAYDFPSPEWDTVTPETK [A23T], the protein stability index was 3.74.
On the same count and under the same terms, next, YQQIKAGAYDFPSPEWDTVTPEDK [A23D]: 4.36; YQQIKAGAYDFPSPEWDTVTPEFK [A23F]: 3.28.
Still for that read-out and setting: under YQQIKAGAYDFPSPEWDTVTPEEK [A23E] stands 4.05; under YQQIKAGAYDFPSPEWDTVTPEWK [A23W], 3.25.
Same read-out and setting: next, YQQIKAGAYDFPSPEWDTVTPEKK [A23K]: 3.82.
Regarding YQQIKAGAYDFPSPECDTVTPEAK [W16C], the protein stability index came out at 4.18.
For YQQIKAGAYDFPSPEEDTVTPEAK [W16E], the protein stability index amounted to 4.46.
Same read-out and setting: next, YQQIKAGAYDFPSPEMDTVTPEAK [W16M]: 4.31.
For the variant YQQIKAGAYDFPSPETDTVTPEAK [W16T], the protein stability index was 4.39.
The same measure, in the same setting: next, YQQIKAGAYDFPSPENDTVTPEAK [W16N]: 4.55; YQQIKAGAYDFPSPEDDTVTPEAK [W16D]: 4.79.
Still for that read-out and setting: under YQQIKAGAYDFPSPEADTVTPEAK [W16A] stands 4.07; under YQQIKAGAYDFPSPEWDTVTPQAK [E22Q], 2.67.
Same read-out and setting: under YQQIKAGAYDFPSPEWDTVTPLAK [E22L] stands 2.98; under YQQIKAGAYDFPSPEWDTVTPGAK [E22G], 3.27; under YQQIKAGAYDFPSPEWDTVTPSAK [E22S], 2.97.
With YQQIKAGAYDFPSPEWDTVTPYAK [E22Y], the protein stability index was found to be 2.46.
The same measure, in the same setting: next, YQQIKAGAYDFPSPEWDTVTPNAK [E22N]: 3.41; YQQIKAGAYDFPSPEWDTVTPMAK [E22M]: 2.63.
Still for that read-out and setting: next, YQQIKATAYDFPSPEWDTVTPEAK [G7T]: 3.83.
The same measure, in the same setting: next, YQQIKAPAYDFPSPEWDTVTPEAK [G7P]: 3.86.
On to YQQIKAKAYDFPSPEWDTVTPEAK [G7K], for which the protein stability index amounted to 3.27.
For YQQIKAWAYDFPSPEWDTVTPEAK [G7W], the protein stability index is 2.31.
Still for that read-out and setting: next, YQQIKAQAYDFPSPEWDTVTPEAK [G7Q]: 3.92.
The same measure, in the same setting: under YQQIKAIAYDFPSPEWDTVTPEAK [G7I] stands 3.25; under YQQIKCGAYDFPSPEWDTVTPEAK [A6C], 3.37.
YQQIKKGAYDFPSPEWDTVTPEAK [A6K]: the protein stability index was 3.22.
For the variant YQQIKTGAYDFPSPEWDTVTPEAK [A6T], the protein stability index stood at 3.62.
Still for that read-out and setting: next, YQQIKDGAYDFPSPEWDTVTPEAK [A6D]: 4.28; YQQIKIGAYDFPSPEWDTVTPEAK [A6I]: 2.77.
Same read-out and setting: under YQQIKFGAYDFPSPEWDTVTPEAK [A6F] stands 2.9; under YQQIKAGAYDFPSEEWDTVTPEAK [P14E], 4.47; under YQQIKAGAYDFPSDEWDTVTPEAK [P14D], 4.42.
In the case of YQQIKAGAYDFPSLEWDTVTPEAK [P14L], the protein stability index was determined as 3.17.
For the variant YQQIKAGAYDFPSFEWDTVTPEAK [P14F], the protein stability index amounted to 2.67.
The same measure, in the same setting: next, YQQIKAGAYDFPSMEWDTVTPEAK [P14M]: 3.55; YQQIKAGAYDFPSHEWDTVTPEAK [P14H]: 3.65.
For the variant YQQIKAGAYDFPSSEWDTVTPEAK [P14S], the protein stability index amounted to 3.71.
On the same count and under the same terms, under YQQIKAGAYDFPSQEWDTVTPEAK [P14Q] stands 3.87.
In the case of YQQIKAGAYDFPSVEWDTVTPEAK [P14V], the protein stability index was determined as 3.39.
Same read-out and setting: next, YQQIKAGAYDFPSYEWDTVTPEAK [P14Y]: 2.89; YQQIKAGKYDFPSPEWDTVTPEAK [A8K]: 3.66.
On the same count and under the same terms, under YQQIKAGVYDFPSPEWDTVTPEAK [A8V] stands 3.16.
